Measured values taken from paper PMC10331576.

Target: COVID-2019-Spike-328-585 (RBD) (SARS-CoV-2), P0DTC2
Assay: BLI; […] (HIS1K) […] (50 μM, 31 μM, and 8.8 μM); 30°C, PBS; 1:1 binding model; Octet HTX
Settings: remark: other sources report otherwise

B1: DC-SIGN.Fc, Q9NNX6 (Fc fusion)
chain: QVSKVPSSISQEQSRQDAIYQNLTQLKAAVGELSEKSKLQEIYQELTQLKAAVGELPEKSKLQEIYQELTRLKAAVGELPEKSKLQEIYQELTWLKAAVGELPEKSKMQEIYQELTRLKAAVGELPEKSKQQEIYQELTRLKAAVGELPEKSKQQEIYQELTRLKAAVGELPEKSKQQEIYQELTQLKAAVERLCHPCPWEWTFFQGNCYFMSNSQRNWHDSITACKEVGAQLVVIKSAEEQNFLQLQSSRSNRFTWMGLSDLNQEGTWQWVDGSPLLPSFKQYWNRGEPNNVGEEDCAEFSGNGWNDDKCNLAKFWICKKSAASCSRDEEQFLSPAPATPNPPPA
Kd: 18.7 µM
